# In paper PMC9605926, “Safety of [^177Lu]Lu-NeoB treatment: a preclinical study characterizing absorbed dose and acute, early, and late organ toxicity” (European Journal of Nuclear Medicine and Molecular Imaging, 2022):
# “And” between values parts separate entries of the source, which are not always exact repeats. Identical values can stand only once.
# Columns and labels:
# healthy Balb/c mice [1] = assay: Toxicity study, hematology (same groups as A3); format: in vivo, mouse; details: control group 2, 5, 11, 19, 30, 43 wk, mean±SD
# Method: (§1) Five different experimental groups (10 male and 10 female healthy animals per group; n = 100) were included in the radiotoxicity study and treated as follows: control group 1: 3 × vehicle (PBS + kolliphor HS 15 (1 mg/mL)); control group 2: 3 × 1200 pmol [^175Lu]Lu-NeoB; treatment group 1: 3 × 40 MBq/400 pmol [^177Lu]Lu-NeoB; treatment group 2: 3 × 80 MBq/800 pmol [^177Lu]Lu-NeoB; and treatment group 3: 3 × 120 MBq/1200 pmol [^177Lu]Lu-NeoB.
# (§2) Animals received 3 injections with an interval of 7 days between each injection.
# Throughout the study, the animals were observed daily to check for physical signs of toxicity and signs of discomfort, and animals were weighed 2–3 times per week. Furthermore, at week -1, 5, 11, 19, 30, and 43, blood samples were collected by submandibular puncture from all animals that were in the study at that time point. All blood samples were analyzed for hematological parameters (hematocrit; hemoglobin; red blood cell count; white blood cell count; hemoglobin; mean cell hemoglobin concentration; mean cell volume; platelet count) on the scilVet abc + counter (Covetrus).
# healthy Balb/c mice [2] = assay: Toxicity study, histopathology (5-point grade); 3 i.v. injections at 7-day interval; control group 2 = 3× 1200 pmol [175Lu]Lu-NeoB; treatment groups 1/2/3 = 3× 40 MBq/400 pmol, 80 MBq/800 pmol, 120 MBq/1200 pmol [177Lu]Lu-NeoB; format: in vivo, mouse
# Method: as §1, §2
# At 5, 19, and 43 weeks after the first injection, 3–4 male and 3–4 female animals of each group were sacrificed by isoflurane overdose after a blood sample was taken by retro-orbital puncture. Hereafter, the axillary lymph nodes, mesenteric lymph nodes, skin, mammary fat pad, sternum, pancreas, adrenal glands, kidneys, spleen, liver, gallbladder, stomach, duodenum, jejunum, ileum, caecum, colon, rectum, testes (M), epididymis (M), seminal vesicles (M), prostate gland (M), ovaries (F), oviducts (F), uterus-cervix (F), vagina (F), bladder, ureters, sciatic nerve, skeletal muscle, femur, lungs, trachea, esophagus, thymus, thyroid gland, aorta, heart, brain, pituitary gland, eyes, harderian glands, tongue, spinal column, and the tail were collected and analyzed macroscopically. All organs and tissues were formalin fixed (4% buffered formaldehyde) and shipped to the European Research Biology Centre (ERBC, Pomezia, Rome, Italy) where histological sampling, embedding, sectioning (5 µm thick), and hematoxylin–eosin staining were performed according to standard guidelines. All organs and tissues were analyzed microscopically by an experienced pathologist. A 5-point grading scale was used: 1: minimal change, 2: mild change, 3: moderate change, 4: marked change, 5: severe change.
# healthy Balb/c mice [3] = assay: Toxicity study, clinical chemistry; format: in vivo, mouse; details: control group 2, 5, 11, 19, 30, 43 wk, mean±SD
# Method: as §1, §2
# In addition, the following clinical chemistry parameters were measured: sodium, potassium chloride, calcium, glucose, creatinine, urea, alanine aminotransferase (ALT), aspartate aminotransferase (AST), alkaline phosphatase (ALP), amylase, lipase, and cholesterol, using the Roche/Hitachi cobas c systems according to the standard protocol. To reach the volume necessary for measuring the clinical chemistry parameters, the blood plasma was diluted 3–5 times with demineralized water.
# patients = details: human, in vivo; cited from earlier work
# Source text: Due to the very small size of murine kidneys and the long range of β^− particles, the murine kidneys receive a more homogeneous radiation dose compared to the much larger human kidneys. […] These ... || Bone marrow toxicity is a concern when using targeted radionuclide therapy with, for example, lutetium-177 labeled peptides with a long circulation time. Here, we found a decrease in WBC counts 5 weeks after radioligand injection in treatment group 3, which received bone marrow doses between 0.20 and 0.36 Gy. Although not clear from our histopathological analysis, this finding could potentially indicate bone marrow suppression. However, it should also be noted that the brief drop in WBC counts may have (partly) been caused by the reported urinary bladder inflammation. The observed ...
# [4] = female wk 43, control group 2, grade 1
# [5] = female wk 43, control group 2, grade 2
# [6] = male wk 5, control group 2, grade 1
# [7] = male wk 5, control group 2, grade 2
# [8] = male wk 19, control group 2, grade 1
# [9] = male wk 43, control group 2, grade 1
# [10] = male wk 43, control group 2, grade 2
molecule,measurement,setting,value
CC(C)CC(CC(C)C)NC(=O)[C@H](Cc1cnc[nH]1)NC(=O)CNC(=O)[C@@H](NC(=O)[C@H](C)NC(=O)[C@H](Cc1c[nH]c2ccccc12)NC(=O)[C@H](CCC(N)=O)NC(=O)[C@@H](Cc1ccccc1)NC(=O)COCC(=O)Nc1ccc(CNC(=O)CN2CCN(CC(=O)O)CCN(CC(=O)O)CCN(CC(=O)O)CC2)cc1)C(C)C [[^175Lu]Lu-NeoB],WBC,healthy Balb/c mice [1]; female,7.27 ± 1.51 103/mm3 and 8.51 ± 2.34 103/mm3 and 6.74 ± 3.19 103/mm3 and 10.38 ± 2.86 103/mm3 and 7.40 ± 0.72 103/mm3
same,WBC,healthy Balb/c mice [1]; male,7.67 ± 1.50 103/mm3 and 8.37 ± 2.67 103/mm3 and 9.53 ± 2.84 103/mm3 and 9.80 ± 2.25 103/mm3 and 6.70 ± 2.71 103/mm3
same,Treatment-related toxicological effects,"healthy Balb/c mice [2]; control group 2, 3× 1200 pmol, male and female",did not show any treatment-related toxicological effects
same,"Adrenal glands subcapsular cell hyperplasia, incidence","healthy Balb/c mice [2]; female wk 5, control group 2, grade 1",2/3
same,"Brain artifacts, incidence","healthy Balb/c mice [2]; female wk 5, control group 2, grade 3",1/3
same,"Adrenal glands subcapsular cell hyperplasia, incidence","healthy Balb/c mice [2]; female wk 19, control group 2, grade 1",1/3
same,"Adrenal glands subcapsular cell hyperplasia, incidence","healthy Balb/c mice [2]; female wk 19, control group 2, grade 2",2/3
same,"Adrenal glands subcapsular cell hyperplasia, incidence",healthy Balb/c mice [2]; [4],1/4
same,"Liver inflammatory cell foci, incidence",healthy Balb/c mice [2]; [4],1/4
same,"Adrenal glands subcapsular cell hyperplasia, incidence",healthy Balb/c mice [2]; [5],2/4
same,"Pancreas inflammatory cell foci, incidence",healthy Balb/c mice [2]; [5],1/4
same,"Uterus endometrial hyperplasia, incidence","healthy Balb/c mice [2]; female wk 43, control group 2, grade 4",1/4
same,"Adrenal glands accessory cortical tissue, incidence",healthy Balb/c mice [2]; [6],1/3
same,"Adrenal glands subcapsular cell hyperplasia, incidence",healthy Balb/c mice [2]; [6],1/3
same,"Adrenal glands subcapsular cell hyperplasia, incidence",healthy Balb/c mice [2]; [7],1/3
same,"Spleen extramedullary haematopoiesis, incidence",healthy Balb/c mice [2]; [7],1/3
same,"Adrenal glands subcapsular cell hyperplasia, incidence",healthy Balb/c mice [2]; [8],2/3
same,"Pancreas inflammatory cell foci, incidence",healthy Balb/c mice [2]; [8],1/3
same,"Urinary bladder proteinaceous plug, incidence","healthy Balb/c mice [2]; male wk 19, control group 2, grade 2",1/3
same,"Adrenal glands subcapsular cell hyperplasia, incidence",healthy Balb/c mice [2]; [9],3/4
same,"Kidneys inflammatory cell foci, incidence",healthy Balb/c mice [2]; [9],1/4
same,"Testes germ cell depletion, incidence",healthy Balb/c mice [2]; [9],1/4
same,"Adrenal glands subcapsular cell hyperplasia, incidence",healthy Balb/c mice [2]; [10],1/4
same,"Pancreas inflammatory cell foci, incidence",healthy Balb/c mice [2]; [10],1/4
same,"Kidneys cyst/s, incidence","healthy Balb/c mice [2]; male wk 43, control group 2, grade 3",1/4
same,Alk. Phosphatase,healthy Balb/c mice [3]; female,100.20 ± 6.96 U/L and 84.43 ± 7.63 U/L and 73.57 ± 9.88 U/L and 86.25 ± 8.54 U/L and 71.25 ± 14.93 U/L
same,Urea,healthy Balb/c mice [3]; female,7.83 ± 0.88 mmol/L and 7.07 ± 1.19 mmol/L and 6.14 ± 0.38 mmol/L and 7.00 ± 0.00 mmol/L and 6.17 ± 0.76 mmol/L
same,Alk. Phosphatase,healthy Balb/c mice [3]; male,117.70 ± 8.30 U/L and 100.29 ± 7.72 U/L and 62.50 ± 6.45 U/L and 80.00 ± 7.07 U/L and 67.50 ± 2.89 U/L
same,Urea,healthy Balb/c mice [3]; male,7.17 ± 0.64 mmol/L and 5.61 ± 0.86 mmol/L and 5.75 ± 0.65 mmol/L and 6.75 ± 1.55 mmol/L and 8.00 ± 2.12 mmol/L
[^177Lu]Lu-DOTATATE,Average absorbed bone marrow dose,patients,2 Gy
same,Average kidney dose in patients,patients,20.1 ± 4.9 Gy
same,"Minimal to mild nephrotoxicity, cases",patients,6/79
